In patent US12534531 (MacroGenics, dated 2026) one finds IC50 and EC50 data, which are given here for 1 molecule.

For test [1], the target named is T1, human PD-1 expressed on the surface of cells (NSO cells expressing human PD-1; MNFAT-luc2/PD-1 Jurkat cells) (human, UniProt Q15116 21-288).
T1 construct: also called cell surface PD-1; PDCD1 transfected NSO cells expressing PD-1
Briefly: FACS: inhibition of sPD-L2 binding to PD-1 on NSO cells; SM; SD 0.5869.

In test [2] the target is T1, human PD-1 expressed on the surface of …. Briefly: FACS saturation binding to NSO cells expressing PD-1; SM; SD 0.4140.
Test [3] addresses T2, biotinylated-soluble human LAG-3-Fc fusion protein (human, UniProt P18627 23-450, biotinylated (site not stated)).
T2 construct: whole entry named; also called shLAG-3; shLAG-3-Fc; not shown: Fc
T2 sequence: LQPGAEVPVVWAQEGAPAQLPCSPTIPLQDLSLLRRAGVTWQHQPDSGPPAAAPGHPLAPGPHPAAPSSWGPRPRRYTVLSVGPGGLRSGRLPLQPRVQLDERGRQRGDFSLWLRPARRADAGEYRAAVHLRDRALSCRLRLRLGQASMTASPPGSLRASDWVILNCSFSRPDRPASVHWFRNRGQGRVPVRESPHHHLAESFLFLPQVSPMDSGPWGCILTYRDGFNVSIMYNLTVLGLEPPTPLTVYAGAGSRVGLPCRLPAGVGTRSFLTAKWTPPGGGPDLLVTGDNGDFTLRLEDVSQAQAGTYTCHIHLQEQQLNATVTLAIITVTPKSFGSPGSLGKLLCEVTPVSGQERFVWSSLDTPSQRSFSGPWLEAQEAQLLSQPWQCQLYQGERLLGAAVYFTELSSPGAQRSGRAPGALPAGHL
The experiment in a line: FACS: inhibition of shLAG-3-Fc binding to MHC II on Daudi cells (column head prints EC50); SM; SD 1.1398.

The target in test [4] is T3, human LAG-3 expressed on NSO cells (human, UniProt P18627 29-525).
T3 sequence: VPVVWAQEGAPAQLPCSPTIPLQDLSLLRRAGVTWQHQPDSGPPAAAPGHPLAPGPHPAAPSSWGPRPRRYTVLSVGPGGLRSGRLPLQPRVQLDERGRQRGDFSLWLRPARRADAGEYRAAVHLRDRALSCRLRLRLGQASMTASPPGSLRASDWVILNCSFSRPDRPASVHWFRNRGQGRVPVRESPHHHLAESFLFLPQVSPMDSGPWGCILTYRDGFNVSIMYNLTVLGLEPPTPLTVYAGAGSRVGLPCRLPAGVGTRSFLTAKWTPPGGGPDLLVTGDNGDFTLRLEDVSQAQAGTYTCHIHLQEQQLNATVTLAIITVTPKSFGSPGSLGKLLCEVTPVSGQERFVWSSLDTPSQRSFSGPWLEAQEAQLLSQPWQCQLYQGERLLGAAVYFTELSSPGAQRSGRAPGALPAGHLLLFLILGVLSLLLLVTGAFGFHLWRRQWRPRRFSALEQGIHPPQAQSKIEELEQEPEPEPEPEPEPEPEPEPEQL
The experiment in a line: FACS saturation binding to NSO cells expressing LAG-3; SM; SD 0.5326.

Test [5] deals with T1, human PD-1 expressed on the surface of …. Briefly: FACS: inhibition of sPD-L1 binding to PD-1 on NSO cells; SM; SD 0.1692.

T1 sequence (Q15116 21-288): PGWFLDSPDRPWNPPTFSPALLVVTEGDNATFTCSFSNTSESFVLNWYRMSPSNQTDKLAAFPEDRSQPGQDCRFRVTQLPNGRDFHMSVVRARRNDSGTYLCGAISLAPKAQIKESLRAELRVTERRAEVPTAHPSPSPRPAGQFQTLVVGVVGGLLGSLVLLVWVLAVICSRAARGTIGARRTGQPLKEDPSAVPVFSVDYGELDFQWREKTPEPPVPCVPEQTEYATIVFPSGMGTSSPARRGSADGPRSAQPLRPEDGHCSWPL

B1: DART D (bispecific antibody, human IgG4 S228P, kappa)
chain 1: EIVLTQSPATLSLSPGERATLSCRASESVDNYGMSFMNWFQQKPGQPPKLLIHAASNQGSGVPSRFSGSGSGTDFTLTISSLEPEDFAVYFCQQSKEVPYTFGGGTKVEIKGGGSGGGGQVQLVQSGAEVKKPGASVKVSCKASGYTFTNYGMNWVRQAPGQGLEWMGWINTYTGESTYADDFEGRFVFSMDTSASTAYLQISSLKAEDTAVYYCARESLYDYYSMDYWGQGTTVTVSSLGGGSGASTKGPSVFPLAPCSRSTSESTAALGCLVKDYFPEPVTVSWNSGALTSGVHTFPAVLQSSGLYSLSSVVTVPSSSLGTKTYTCNVDHKPSNTKVDKRVESKYGPPCPPCPAPEFLGGPSVFLFPPKPKDTLYITREPEVTCVVVDVSQEDPEVQFNWYVDGVEVHNAKTKPREEQFNSTYRVVSVLTVLHQDWLNGKEYKCKVSNKGLPSSIEKTISKAKGQPREPQVYTLPPSQEEMTKNQVSLTCLVKGFYPSDIAVEWESNGQPENNYKTTPPVLDSDGSFFLYSRLTVDKSRWQEGNVFSCSVMHEALHNHYTQKSLSLSLG
chain 2: DIVMTQTPLSLSVTPGQPASISCKSSQSLLHSDAKTYLNWLLQKPGQPPERLIYLVSELDSGVPDRFSGSGSGTDFTLKISRVEAEDVGVYYCWQGTHFPYTFGGGTKVEIKGGGSGGGGQVQLVQSGAEVKKPGASVKVSCKASGYSFTSYWMNWVRQAPGQGLEWIGVIHPSDSETWLDQKFKDRVTITVDKSTSTAYMELSSLRSEDTAVYYCAREHYGTSPFAYWGQGTLVTVSSLGGGSGRTVAAPSVFIFPPSDEQLKSGTASVVCLLNNFYPREAKVQWKVDNALQSGNSQESVTEQDSKDSTYSLSSTLTLSKADYEKHKVYACEVTHQGLSSPVTKSFNRGEC
Regarding B1, the IC50 in test [1] was 3130 nM; in test [3] it was 1180 nM; in test [5], 1550 nM. Also, the concentration for a half-maximal effect (EC50) amounted to 2230 nM in test [2] and 898 nM in test [4].
